# Laboratory results reported in PMC10602907 (2023).
# Like-named read-outs stand apart in the source and are kept apart here.
# B1: FgUbp8, 6xHis-tagged recombinant protein (natural protein)
# chain: MSARPTTPASPKNVRVKSPVPGLPMFGCEHIQLLLSKNQEVMNSSITHYKLILRGIFDATPIVPQTSTLDGRPVTSLTSNYLCLQCPSTVTEEERLRHGTKKQHRFYVDSRSGCLYCQICDDYIWDPTLEELRVRKIGTGSFSGRKRKHDELFTGSFKDDPRFISSNTNTASCRANGLRGIYNAGATCYQNVVLQSFLHNPLLRNFYLSDGHQSSDCQVSHCLSCAMDDMFQDFYALETTNGYTAANILSGFWISEKKAFENLVTTKEQDAHEFFQFLAEELHERNGDGKKPEIGSEHSCNCIMHQTFYGKMQTTTTCQNCSGQSNSIQSFLDLSLGLDNVVQKKSKRTGQKKPTVSLQDCLDEEYIKYDKCEYRCNNCNGTQQAKRHTSIKRLPNVLSIQLKRFEYKHGRHDRAASKVDNEVKFPLQLNMMPYTNRIRNHDSRESLELERSCTYDLLSVVVHVGELDTGHYTSYCRVGDQWFKFNDHKVELASLSDVLGAQAYLLFYIIRSLA
# B2: FgSwc6, 6xHis-tagged recombinant protein (natural protein)
# chain: MNNFGVIELASAKTTSAPGWAYVPDNTISRPTAPTNRKRARNVPGLTYSDLTARQDNKIRKEVEALDKDGGKDNTIPLPVKSGRVQGKHTPNVRKILQSQKTFGNHLDDFLAMQALVESNPAISRASGANSKRPSVSRKDTPSSSKPPPDEDTTMTDANLQPLLPEPSRSPPASHPGDYNPLLVSRVPDMPSDEELRRLLAHPPLNYGEATGTRDTKYPARSFCEVCGYWGRVRCMKCGTRVCALDCLEAHKEECVTRYGP
# Assays:
# Experiment in all cases: MST
# [1] = biological target: FgHapX, 6xHis-tagged recombinant protein (Fusarium graminearum PH-1)
# [2] = biological target: T1, FgSreA, 6xHis-tagged recombinant protein (Fusarium graminearum PH-1)
# [3] = biological target: T1, FgSreA, 6xHis-tagged recombinant protein; remark: listed apart in the source
binder,measurement,setting,value
B1,Kd,[1],1.9 µM
B2,Kd,[2],398 µM
same,Kd,[3],3.04 µM
